Bridges are numbered along the chain shown (N, C = ends). [ ]: non-standard residue; d: D form. Pen = CC(C)(S)[C@H](N)C(=O)O; hCys = N[C@@H](CCS)C(=O)O; Dap = NC[C@H](N)C(=O)O
Legend:
Assay in all cases: cell-based or functional assay
melanocortin-4 receptor = melanocortin-4 receptor (human, UniProt P32245 1-332)
melanocortin 5 receptor = melanocortin 5 receptor (human, UniProt P33032 1-325)
melanocortin 1 receptor = melanocortin 1 receptor (human, UniProt Q01726 1-317)
melanocortin 3 receptor = melanocortin 3 receptor (human, UniProt P41968 1-323)
melanocortin 3 receptor, sequence (P41968 whole entry): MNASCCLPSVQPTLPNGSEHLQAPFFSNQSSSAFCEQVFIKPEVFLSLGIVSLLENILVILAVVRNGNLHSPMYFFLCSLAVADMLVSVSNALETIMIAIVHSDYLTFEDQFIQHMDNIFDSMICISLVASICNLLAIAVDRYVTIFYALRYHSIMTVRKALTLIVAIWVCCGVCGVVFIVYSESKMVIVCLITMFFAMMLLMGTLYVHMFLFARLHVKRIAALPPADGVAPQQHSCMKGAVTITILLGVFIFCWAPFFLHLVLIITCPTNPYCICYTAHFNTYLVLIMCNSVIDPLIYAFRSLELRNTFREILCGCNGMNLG

melanocortin-4 receptor, sequence (P32245 whole entry): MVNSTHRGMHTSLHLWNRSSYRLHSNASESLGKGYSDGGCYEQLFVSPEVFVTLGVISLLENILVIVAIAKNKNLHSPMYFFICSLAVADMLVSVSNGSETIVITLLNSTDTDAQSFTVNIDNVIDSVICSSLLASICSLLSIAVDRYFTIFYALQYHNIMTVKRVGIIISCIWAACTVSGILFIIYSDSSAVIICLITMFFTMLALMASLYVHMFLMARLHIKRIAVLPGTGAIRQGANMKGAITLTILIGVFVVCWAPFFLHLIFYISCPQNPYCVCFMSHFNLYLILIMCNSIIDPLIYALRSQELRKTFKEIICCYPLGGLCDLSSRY
melanocortin 1 receptor, sequence (Q01726 whole entry): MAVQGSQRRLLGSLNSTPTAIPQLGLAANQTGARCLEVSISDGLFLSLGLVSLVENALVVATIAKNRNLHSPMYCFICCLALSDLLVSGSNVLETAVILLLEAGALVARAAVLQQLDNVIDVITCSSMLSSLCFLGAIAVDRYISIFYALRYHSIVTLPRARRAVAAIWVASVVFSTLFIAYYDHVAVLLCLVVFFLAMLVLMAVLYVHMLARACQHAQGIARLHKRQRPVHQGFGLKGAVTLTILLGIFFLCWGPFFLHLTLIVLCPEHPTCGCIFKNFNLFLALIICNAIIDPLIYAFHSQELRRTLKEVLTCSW
melanocortin 5 receptor, sequence (P33032 whole entry): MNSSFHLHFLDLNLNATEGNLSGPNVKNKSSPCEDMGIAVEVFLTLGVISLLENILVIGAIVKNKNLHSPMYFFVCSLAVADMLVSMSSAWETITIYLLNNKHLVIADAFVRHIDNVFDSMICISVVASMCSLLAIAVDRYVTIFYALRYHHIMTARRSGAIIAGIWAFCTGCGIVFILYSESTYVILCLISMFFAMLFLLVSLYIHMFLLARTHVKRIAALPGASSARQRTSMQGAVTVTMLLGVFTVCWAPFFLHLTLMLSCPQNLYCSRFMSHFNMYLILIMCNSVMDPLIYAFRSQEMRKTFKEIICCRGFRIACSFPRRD

| Binder | EC-50 (nM), cAMP accumulation (melanocortin-4 receptor) [nM] | EC-50 (nM), cAMP accumulation (melanocortin 5 receptor) [nM] | EC-50 (nM), cAMP accumulation (melanocortin 1 receptor) [nM] | EC-50 (nM), cAMP accumulation (melanocortin 3 receptor) [nM] | Selectivity Ratio MC4R/MC3R (of EC-50 values) (melanocortin 3 receptor) |
| --- | --- | --- | --- | --- | --- |
| Ac-R[hCys]Q[dF]RW[Pen]-NH2 (disulfide 2-7) [001555C, Ac-Arg-(hCys-Gln-D-Phe-Arg-Trp-Pen)-NH2] | 0.19 | 124 | 47.5 | 0.52 | 2.68 |
| Ac-R[hCys]N[dF]RW[Pen]-NH2 (disulfide 2-7) [001554C, Ac-Arg-(hCys-Asn-D-Phe-Arg-Trp-Pen)-NH2] | 1.6 | 735 | 235 | > 3000 | > 1870 |
| Ac-R[hCys]S[dF]RW[Pen]-NH2 (disulfide 2-7; SMILES CC(=O)N[C@@H](CCCNC(=N)N)C(=O)N[C@H]1CCSSC(C)(C)[C@@H](C(N)=O)NC(=O)[C@H](Cc2c[nH]c3ccccc23)NC(=O)[C@H](CCCNC(=N)N)NC(=O)[C@@H](Cc2ccccc2)NC(=O)[C@H](CO)NC1=O) [001556C, Ac-Arg-(hCys-Ser-D-Phe-Arg-Trp-Pen)-NH2] | 1.86 | 1700 | 229 | > 3000 | > 1620 |

The next lines start with the values.

| EC-50 (nM), cAMP accumulation (melanocortin-4 receptor) [nM] | EC-50 (nM), cAMP accumulation (melanocortin 5 receptor) [nM] | EC-50 (nM), cAMP accumulation (melanocortin 1 receptor) [nM] | EC-50 (nM), cAMP accumulation (melanocortin 3 receptor) [nM] | Selectivity Ratio MC4R/MC3R (of EC-50 values) (melanocortin 3 receptor) | Binder |
| --- | --- | --- | --- | --- | --- |
| 1.11 | 2050 | 516 | > 3000 | > 2710 | Ac-R[hCys]T[dF]RW[Pen]-NH2 (disulfide 2-7; SMILES CC(=O)N[C@@H](CCCNC(=N)N)C(=O)N[C@H]1CCSSC(C)(C)[C@@H](C(N)=O)NC(=O)[C@H](Cc2c[nH]c3ccccc23)NC(=O)[C@H](CCCNC(=N)N)NC(=O)[C@@H](Cc2ccccc2)NC(=O)[C@H]([C@@H](C)O)NC1=O) [001574C, Ac-Arg-(hCys-Thr-D-Phe-Arg-Trp-Pen)-NH2] |
| 0.66 | 67.3 | 23.6 | 1.16 | 1.75 | Ac-REQ[dF]RW[Dap]-NH2 (lactam 2-7; SMILES CC(=O)N[C@@H](CCCNC(=N)N)C(=O)N[C@H]1CCC(=O)NC[C@@H](C(N)=O)NC(=O)[C@H](Cc2c[nH]c3ccccc23)NC(=O)[C@H](CCCNC(=N)N)NC(=O)[C@@H](Cc2ccccc2)NC(=O)[C@H](CCC(N)=O)NC1=O) [001576C, Ac-Arg-(Glu-Gln-D-Phe-Arg-Trp-Dpr)-NH2] |

From patent US20220226425A1 (RHYTHM PHARMACEUTICALS, published 2022)
